# Experimental data: US7033773B1, “Screening assays for G protein coupled receptor agonists and antagonists” (The General Hospital Corporation, priority 1997, dated 2006)
# How the values were obtained:
# Format in all cases: cell-based
# rat PTHR [1] = biological target: T1, rat PTHR (Rattus norvegicus, UniProt P25961); test: IP3 production (PLC activation) in LLC-PK1 cells expressing rat PTHR
# T1 construct: expressed in transfected cells; host or cells: LLC-PK1 porcine renal epithelial cells (EW5; also EW29, AR-C38, AR-B44)
# T1 sequence (P25961 27-591): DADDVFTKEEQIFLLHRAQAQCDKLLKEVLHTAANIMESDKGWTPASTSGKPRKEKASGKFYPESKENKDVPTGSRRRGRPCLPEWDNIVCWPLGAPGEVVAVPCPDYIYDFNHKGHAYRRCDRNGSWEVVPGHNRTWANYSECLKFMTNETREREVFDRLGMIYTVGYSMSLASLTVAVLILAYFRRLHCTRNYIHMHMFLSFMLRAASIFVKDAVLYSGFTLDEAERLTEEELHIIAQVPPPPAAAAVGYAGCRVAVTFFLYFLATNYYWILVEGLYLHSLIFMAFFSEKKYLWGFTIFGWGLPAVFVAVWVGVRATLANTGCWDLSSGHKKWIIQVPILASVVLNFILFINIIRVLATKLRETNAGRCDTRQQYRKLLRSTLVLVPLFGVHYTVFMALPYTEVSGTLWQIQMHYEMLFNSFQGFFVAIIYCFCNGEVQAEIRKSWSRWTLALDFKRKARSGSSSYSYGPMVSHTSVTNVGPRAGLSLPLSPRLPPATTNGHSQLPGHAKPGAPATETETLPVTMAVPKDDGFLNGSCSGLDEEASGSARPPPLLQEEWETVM
# Experimental: (§1) Cells were seeded into 24-well plates at a density of 2.5×10^5 cells/well and cultured for a further 2 days before study. The cells were labeled at 37° C. for 16 h before assay with 3 uCi/ml of [^3H]myo-inositol in assay medium (serum- and inositol-free DMEM (GIBCO-BRL, Grand Island, N.Y.) supplemented with 0.1% BSA). After washing the cells with prewarmed assay medium containing 30 mM LiCl, they were incubated with 0.25 ml of assay medium containing 30 mM LiCl and stimulators (or vehicle) at 37° C. for various intervals(1-30 min). IP3 formation was arrested by aspiration and immediate addition of 0.5 ml of ice-cold 5% TCA. The acid extracts then were extracted twice with two volumes of water-saturated ether and adjusted to pH 7.4 with concentrated NaOH and Tris base (final concentration=10 mM) prior to chromatography on AG 1×8 anion-exchange columns (Bio-Rad, Richmond, Calif.), as previously described (Guo, J., et al., Endocrinology 136:3884-3891 (1995)). After eluting other fractions (free [^3H]myo-inositol, glycerophosphate inositol, IP1, and IP2), IP3 fractions were collected and their content of radioactivity was determined by liquid scintillation spectrometry (Beckman, model LS 6000IC).
# Responses to hPTH(1-34) or hPTH(1-31) (1000 nM) were measured in EW5 cells, which express 320,000 rat PTHRs per cell. Each value is the mean±SEM of a representative experiment performed in triplicate. Similar results were obtained in at least 3 individual experiments. The modest reduction in IP3 formation observed with hPTH(1-31) relative to hPTH(1-34) was confirmed in 3 other LLC-PK1 cell lines that expressed rat PTHRs (i.e. EW29, AR-C38 and AR-B44, which express 190,000, 630,000 and 800,000 PTHRs/cell, respectively), in which maximal IP3 formation after hPTH(1-31) (as % of hPTH(1-34) effect) was 75%, 77% and 64%, respectively.
# human PTH/PTHrP receptor = biological target: T2, human PTH/PTHrP receptor (Homo sapiens, UniProt Q03431); test: IP3 production (PLC activation) in LLC-PK1 cells expressing human PTHR; set-up: transfected with a full-length human PTH/PTHrP receptor cDNA; expressed in transfected cells; conditions: for formation of IP3 (activation of phospholipase-C): peptide 1000 nM, mean±SEM
# T2 sequence (Q03431 27-593): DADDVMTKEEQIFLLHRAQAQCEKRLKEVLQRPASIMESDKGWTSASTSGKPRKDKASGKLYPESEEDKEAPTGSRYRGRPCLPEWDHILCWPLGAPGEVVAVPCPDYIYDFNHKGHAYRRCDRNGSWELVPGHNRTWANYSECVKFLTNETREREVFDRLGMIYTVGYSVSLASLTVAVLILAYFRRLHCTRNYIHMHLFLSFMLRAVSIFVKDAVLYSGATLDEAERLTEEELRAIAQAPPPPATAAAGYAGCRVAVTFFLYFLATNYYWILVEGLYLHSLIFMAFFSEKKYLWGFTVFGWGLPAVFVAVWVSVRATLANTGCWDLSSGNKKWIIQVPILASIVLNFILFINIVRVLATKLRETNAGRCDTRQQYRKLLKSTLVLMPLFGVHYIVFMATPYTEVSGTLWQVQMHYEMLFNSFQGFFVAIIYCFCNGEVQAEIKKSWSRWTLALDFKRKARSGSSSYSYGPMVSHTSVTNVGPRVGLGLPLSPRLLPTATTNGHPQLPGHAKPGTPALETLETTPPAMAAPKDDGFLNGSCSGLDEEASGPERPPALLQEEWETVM
# Experimental: as §1
# HKRK B7 cells and HKRK B28 cells, previously loaded with [^3H]myo-inositol, were incubated with each peptide (1000 nM) for 30 min or 4 min, respectively. The formation of IP3 is expressed as a percentage of the amount measured in vehicle-treated controls. Values shown are means±SEM of triplicate determinations.
# rat PTHR [2] = biological target: T1, rat PTHR; test: Cellular phosphate uptake in LLC-PK1 cells expressing rat PTHR
# Experimental: Cells were seeded into 24-well plates at a density of 2.5×10^5 cells/well and cultured for a further 2 days before study. Twenty four hours before assay, cells were refed with 0.5 ml of DMEM containing 0.1% BSA. The next day, cells were refed with serum-free medium (DMEM+0.1% BSA) containing drugs or peptides, and the incubations were continued at 37° C. under 5% CO2 in air for another 6 hr. Cells then were washed with prewarmed Buffer B without BSA and Na2HPO4 and then were incubated at 37° C. for 5 min in 0.25 ml of the same buffer containing [^32P]orthophosphate (4 uCi/ml) and 0.1 mM Na2HPO4. Phosphate uptake was arrested by adding 1 ml of ice-cold sodium-free “stop buffer” [10 mM HEPES (pH 7.4), 140 mM choline chloride, and 5 mM sodium arsenate], followed by two further washes with same buffer. The drained cell layer then was solubilized in 0.5 ml of Lysis Buffer, and cell-associated radioactivity was determined by Cerenkov counting, as previously described (Guo, J., et al., Endocrinology 136:3884-3891 (1995)).
# Responses to hPTH(1-34) or hPTH(1-31) (1000 nM) were measured in EW5 cells, which express 320,000 rat PTHRs per cell. Each value is the mean±SEM of a representative experiment performed in triplicate. Similar results were obtained in at least 3 individual experiments. […]
# [3] = EW5 cells, 320,000 rat PTHRs per cell, peptide 1000 nM, mean±SEM
substance,measurement,setting,value
hPTH(1-31),maximal IP3 formation (as % of hPTH(1-34) effect),"rat PTHR [1]; AR-B44 cells, 800,000 rat PTHRs/cell",64%
same,maximal IP3 formation (as % of hPTH(1-34) effect),"rat PTHR [1]; AR-C38 cells, 630,000 rat PTHRs/cell",77%
same,maximal IP3 generation relative to that by hPTH(1-34),rat PTHR [1]; EW5 cells (and 3 other rPTHR-expressing cell lines),approximately 70%
same,IP3 Formation,rat PTHR [1]; [3],316 ± 35 % of basal
same,maximal IP3 formation (as % of hPTH(1-34) effect),"rat PTHR [1]; EW29 cells, 190,000 rat PTHRs/cell",75%
same,maximal PLC activation as % of the maximal response to hPTH(1-34),rat PTHR [1]; LLC-PK1 cells that expressed rat PTHRs,60%
same,reduction of potency for PLC/PKC activation relative to hPTH(1-34),rat PTHR [1]; via the rat PTHR,40%
same,activation of PLC (in words),"human PTH/PTHrP receptor; 1000 nM, HKRK B28 at 4 min and HKRK B7 at 30 min",stimulated PLC equivalently to hPTH(1-34)
same,formation of IP3 (activation of phospholipase-C),"human PTH/PTHrP receptor; HKRK B7 cells, 30 min stimulation",275 ± 21 percentage of vehicle-treated
same,formation of IP3 (activation of phospholipase-C),"human PTH/PTHrP receptor; HKRK B28 cells, 4 min stimulation",170 ± 14 percentage of vehicle-treated
same,stimulation of phosphate uptake (in words),rat PTHR [2]; EW5 cells,identical
same,Phosphate uptake,rat PTHR [2]; [3],134 ± 3 % of basal
